Reference: the nanobody polyreactivity screen of Harvey et al. (2022)

Experiment: yeast display, Sf9 membrane polyspecificity reagent, FACS + sequencing; frameworks hold sequencing errors
Method in brief: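 Sorting gates, low and high (top ~1%), were placed on anti-HA fluorescence to track expression and on streptavidin fluorescence to track reagent binding. A clone's polyreactivity label is taken from the gate it came out of. The reagent was 10% biotinylated, detergent-solubilized Sf9 membrane, applied for 1 hour at 4 °C to galactose-induced yeast display cells.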

| Sequence | polyreactivity (PSR sort gate) |
| --- | --- |
| QVQLVESGGGLVQAGGSLRLSCAASGSTFTYYTMGWYRQAPGKERELVAAITSGTSTNYADSVKGRFTISRDNAKNTVYLQMNSLKPEDTAVYYEYDYWGQGTQVTVSS | low polyreactivity |
| QVQLVESGGGLVQAGGSLRLSCAASGSTFTYYTMGWYRQAPGKERELVAAITSGTSTNYADSVKGRFTISRDNAKNTVYLQMNSLTPEDTAVYYEYDYWGQGTQVTVSS | low polyreactivity |
| QVQLVESGGGLVQAGGSLRLSCAASGSTFVAYAMGWYRHAPGKERELVADISTSDGSTRYADSVKGRFTISSDNAKNTVYLQMISLKPEDTAVYYCGAGSEYYSYGGVRFSFYYWGQGTQVTVSS | low polyreactivity |
| QVQLVESGGGLVQAGGSLRLSCAASGSTFVAYAMGWYRQAPGKERELVAAISSVGRTNYADSVKGRFTISRDNAKNTVYLQMNSLIPEDTAVYYCNVEPGGITRQEYDYWGQGTQVTVSS | high polyreactivity |
| QVQLVESGGGLVQAGGSLRLSCAASGSTFVCYGMGWYRQAPGKEREFVAAISTSGGRTYYADSVKGRFSISRDNAKNTVYLQMNSLKQEDTAVYYCATRPYFTYRWYDYWGQGTKVTVSS | high polyreactivity |
| QVQLVESGGGLVQAGGSLRLSCAASGSTFVDYAMGWDRQAPGKERELVAGINGSGGSTYYADSVKGRFTISRDNAKNTVYLQMNSLKPEDTAVYYCAKDGSNRLALPAWDYNYWGQGTQVTVSS | low polyreactivity |
| QVQLVESGGGLVQAGGSLRLSCAASGSTFVDYAMGWYRQAPGKERELVAAINERGGSTYYADSVKGRFTISRDNAKNTVYLQMNSLKPEDTAVYYCAKQLWVGVKYDYWGQGTQVTVSS | low polyreactivity |
| QVQLVESGGGLVQAGGSLRLSCAASGSTFVDYDMGWYRQAPGKERELVAAITYSGARTYYADSVKGRFTISRDNAKNTVYLKMNSLKPEDTAVYYCNADQRSASDQLEFDYWGQGTQVTVSS | low polyreactivity |
| QVQLVESGGGLVQAGGSLRLSCAASGSTFVDYYMGWYRQATGKERELVAAITYSGARTYYADSVKGRFTISRDNAKNTVYLQMNSLKPEDTAVYYCNADQSTASDQLEFDYWGQGTQVTVSS | low polyreactivity |
| QVQLVESGGGLVQAGGSLRLSCAASGSTFVFNAMGWYRQAPGKERELVAAISIDGSTNYADSVKGRFTISRDNANNSVYLQMNSLKPEDTAVYYCNAKRYGFFYWQGDYWGQGTQVTVSS | low polyreactivity |
| QVQLVESGGGLVQAGGSLRLSCAASGSTFVFNAMGWYRQAPGKERELVARITTGGSTHYADSVKGRFTISRDNAKNTVYLQMNSLKPEDTAVYYCNTGPYTFDSPEYYYWGQGTQVTVSS | low polyreactivity |
| QVQLVESGGGLVQAGGSLRLSCAASGSTFVGYAMGCYRQAPGKERELVATISWIGVRTYYADSVKGRFTISRDNAKNTVYLQMNSLKPEDTAVYYCANRKGYSARSFWRLYEPENDYWGQGTQVNVSS | high polyreactivity |
| QVQLVESGGGLVQAGGSLRLSCAASGSTFVGYAMGWYRQAPGKERELVAAISWRGTRTYYADSVKGRFTISRDNAKNTVYLQMNSLKPEDTAVYYCAAVARQGKGYDYWGQGTQVTVSS | high polyreactivity |
| QVQLVESGGGLVQAGGSLRLSCAASGSTFVGYAMGWYRQAPGKERELVADIDSIGGSTYYADSVKGRFTISRDNAKNTVYLQMNSLKPEDTAVYYCAARRFDTALVLYDYCGQGTQVTVSS | low polyreactivity |
| QVQLVESGGGLVQAGGSLRLSCAASGSTFVGYAMGWYRQAPGKERELVADIDSIGGSTYYADSVKGRFTISRDNAKNTVYVQMNSLKPEDTAVYYCAARRFDTALVLYDYWGQGTQVTVSS | low polyreactivity |
| QVQLVESGGGLVQAGGSLRLSCAASGSTFVGYAMGWYRQAPGKERELVADIDSIGGSTYYADSVKRRFTISRDNAKNTVYLQMNSLKPEDTAVYDCAAYQHPGLRTSYEYWGQGTQVTVSS | low polyreactivity |
| QVQLVESGGGLVQAGGSLRLSCAASGSTFVGYAMGWYRQAPGKERELVADITSGGGITYYADSVKGRFTISRDNAKNTVYLQMNSLKPEDTAVYYCAVQYYNVLYYQYDYWGQGTQVTVSS | low polyreactivity |
